Here are results for 1 molecule from publication PMC11184549 (ACS Infectious Diseases, 2024).

No end group written: not given here. *: point of attachment. FITC = O=C1OC2(c3ccc(O)cc3Oc3cc(O)ccc32)c2ccc(NC(=S)*)cc21; Ahx = NCCCCCC(=O)O A value given as a limit tells only on which side of the number the result lay.

The target in the assay is human IMPα1 lacking the IMPβ-binding domain (IMPαΔIBB) (human, UniProt P52292 70-529). Put plainly: fluorescence polarisation. On the technique in general: In fluorescence polarisation assays a small probe gives low polarisation when free and higher when bound to something large.

The molecule {FITC-Ahx}-LWGFLSRNKKPRICTREEF [FITC-labeled DENV1 NS5 NLS_(Central) peptide] returned a Kd above 700 nM.

Usually Kd stands for the equilibrium constant for the complex coming apart.
